# Results from paper PMC3673938, “Two Distinct Calmodulin Binding Sites in the Third Intracellular Loop and Carboxyl Tail of Angiotensin II (AT1A) Receptor” (PLoS ONE, 2013).
# Positions count from the first letter of the chain named. Names and notes keep the numbering of the source.
# B1: GST-ATct(297–359): GST fused to the carboxyl terminal tail (amino acids 297 to 359) of the AT1A receptor (protein, UniProt P25095 297-359, looked up, fragment)
# chain: LNPLFYGFLGKKFKKYFLQLLKYIPPKAKSHSSLSTKMSTLSYRPSDNMSSSAKKPASCFEVE
# modifications: carboxyl tail GST fusion
# notes: GST fused to the carboxyl terminal tail (amino acids 297 to 359) of the AT1A receptor
# B2: GSTATct(F313A): F313A mutant of GST-ATct(297–359) (protein, UniProt P30556 297-359, looked up, fragment F313A)
# chain: B1 chain with K15R, F17A, S33N, M49V, A53T, S58P
# modifications: GST fusion
# Assays:
# [1] = system: G protein βγ subunits; assay: GST-fusion protein pull-down of G protein βγ subunits, with or without CaM; format: binding, bovine; conditions: 2 pmol GST-fusion protein, 2 pmol Gβγ, CaM pre-incubated 30 minutes, 20 mM Tris-HCl, 70 mM NaCl, 0.1 mM CaCl2, pH 7.5; 4 or 5 experiments
# Procedure: (§1) GST-fusion proteins were expressed in E. coli BL21 strain cells, and purified by affinity chromatography using immobilized glutathione sepharose 4B beads. Proteins were eluted by reduced glutathione in 50 mM Tris-HCl buffer (pH 8.0), and then concentrated with Centricon filters with 3 kDa MW cut-off. The eluted proteins were either used immediately or stored at −80°C for future use. For GST-fusion protein pull-down assays, fusion proteins were incubated with either cell lysates or purified protein(s) at 4°C for 3 hours, following which glutathione-sepharose 4B beads were added and incubation continued at 4°C for 1 hour. The beads were then recovered by brief centrifugation, followed by 4 washes with the corresponding incubation buffer. The fusion proteins and the proteins to which they were bound were then separated by SDS-PAGE, and identified by staining with Coomassie blue or by immunoblot.
# Figure 7 Effect of CaM on G protein βγ subunit interaction with wild ATi3 or ATct. A. Interaction of G protein βγ subunits and ATi3 or ATct. 50 pmol of GST-ATi3(213–242) or GST-ATct(297–359) were incubated with different amounts of G protein Gβγ subunits in a buffer containing 20 mM Tris-HCl and 70 mM NaCl (pH 7.5). Interactions were assessed by GST-fusion protein pull-down assay, and blots were probed with a specific antibody against Gβ subunits (upper panel). 1 pmol of Gβγ subunit was interacted with different amounts of GST-ATi3(213–242) and GST-ATct(297–359). Interaction was assessed by immunoblot against Gβ subunits (lower panel). B. CaM inhibits the interaction between G protein Gβγ subunits and ATi3 or ATct. 2 pmol of GST-ATi3(213–242) or GST-ATct(297–359) were incubated with different concentrations of pure bovine brain CaM for 30 minutes in a buffer (20 mM Tris-HCl and 70 mM NaCl with 0.1 mM CaCl2, pH 7.5) following which 2 pmol of Gβγ subunits were added and incubated for 1 hour. GST-fusion proteins and their interacting proteins were pulled down by gluthathione-sepharose 4B beads, and subjected to immunoblot. Blots were probed with a specific antibody against Gβ subunits. The summary graph represents means ± S.E. from four independent experiments. C. Effects of CaM on the interactions between G protein βγ subunits and mutated ATi3 and ATct. The method is same as the described in the Figure 7B, except that we used mutated GST-fusion proteins, GST-ATi3(213–242)W219A, ATct(297–359)F309A, and ATct(297–359)F313A. The summary graph represents mean ± S.E. from 4 or 5 independent experiments.
# [2] = system: purified bovine brain CaM; assay: GST-fusion protein pull-down with purified bovine brain CaM; format: binding; conditions: 50 pmol GST-fusion protein, 50 pmol purified bovine CaM, 100 mM Tris-HCl pH 7.5; Ca2+ dependent (0.1 mM CaCl2 vs 1 mM EGTA); repeated five times
# Procedure: as §1
# (§2) Figure 1 Interactions of the i3 loop and carboxyl tail of the AT1A receptor with CaM. A, Construction of GST-fusion proteins. Upper panel illustrates a schematic structure of the AT1A receptor and constructs of GST-fusion proteins of the i3 loop and carboxyl tail of the receptor. The numbers represent positions of amino acids in the receptor. […]
# [3] = system: CaM in rat brain lysates; assay: GST-fusion protein pull-down from rat brain lysates; format: binding; conditions: 50 pmol GST-fusion protein, 500 µg rat brain lysates, 20 mM Tris-HCl, 70 mM NaCl, pH 7.5; Ca2+ dependent; repeated five times
# Procedure: as §1, §2
Molecule,Gβγ binding to GST-fusion protein in the presence of 2 pmol of CaM [1] [%],Gβγ binding to GST-fusion protein in the presence of 10 pmol of CaM [1] [%],"interaction with purified CaM (pull-down, in words) [2]","association with CaM from rat brain lysates (pull-down, in words) [3]"
B1,73,34,associated,associated
B2,99,83,,
